From US20060275301A1 (Chugai, published 2006)

Molecular target: T1, β2 microglobulin (human, UniProt P61769 21-119)
T1 construct: β2M alone, as a denatured band on a Western blot; also called 12 kD molecule
Assay: Western blot

T1 sequence (P61769 21-119 limits assumed): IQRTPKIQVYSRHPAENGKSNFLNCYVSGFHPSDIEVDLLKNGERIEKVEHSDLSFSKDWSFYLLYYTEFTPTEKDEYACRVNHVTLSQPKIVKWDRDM

B1: 2D7 antibody (antibody, V domains shown)
VH: QVQLQQSGPELVKPGASVKMSCKASGYTFTDYFIHWVKQRPGQGLEWIGWIFPGDDTTDYNEKFRGKTTLTADKSSSTAYILLSSLTSEDSAMYFCVRSDDFDYWGQGTTLTVSS
VL: QIVLTQSPAIMSASPGEKVTITCSASSSVSYMHWFQQKPGTFPKLWIYSTSNLASGVPTRFSGSGSGTSYSLTISRMEAEDAATYYCQQRTSYPPTFGSGTKLEIK
notes: CDR1 starts at 50 and 46, so these ranges probably include the leader, but no cleavage site is stated
B1: no binding.
